The supplement of paper PMC9170038

system: K4 kissing-loop RNA reporter; test: apparent KD of K4 kissing-loop reporter; higher = weaker reporter binding; conditions: Eterna round: R107; input ligand: theophylline 20 uM
Experimental: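 RNA-MaP round R107: designed RNA switches with theophylline, tryptophan, arginine or FMN aptamers are transcribed on-chip within common flanks. They are titrated with a labelled K4 kissing-loop RNA reporter in RNA-MaP buffer (100 mM Tris pH 7.5, 80 mM KCl, 4 mM MgCl2), without ligand or with the indicated ligand. Median apparent KD per design.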
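Further: bound reporter read as fluorescence of individual clusters on recovered sequencing chips by microscopy, with normalized cluster intensities fitted with a binding model.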

| Sequence | apparent KD of K4 kissing-loop reporter [nM] |
| --- | --- |
| CUUGGUCUACGAAGGAGCGCCGUGCAGUGAUGUUGCAGUCAGAUCGAGUGAUGUUUCGGGCGGCAGGUAGGUCGCGUGGCCCUUU [Excusion Arginine B GF 26] | 587 |
| ACAGUACCGGGAAGGAGCGUGAAUGAGAAUGGAUAUAGUGAUGUUAUGUAUACGAACGAAUCGCAGGUAGGUCGCCCGGAUCCCU [SSArgB.aD] | 722 |
| UGACUUGCCUGAGGAUAUCUAGGAUAUGGAUAAAAUAAAAUAAUAAUGGAGUGAUGUUCCAGAAGGAGAGAAGGCAGGUAAGUCU [KL-XFMN-B16 #DoubleAptamer #SwitchBubble] | 170 |
| CAUAAAAGGUGGAAGACGAAUCGGUGUCGCCGAGGACCGGUACGGCCGCCACUCGGUCAUCAAAUCCUUCCCGAGUGAUGUUCGA [theeternabot_sameState_KL_Trp_A_5] | 444 |
| AGCGAGUGAUGUUCGCUGAUCAUGAGAAGUUAGGAUAUAUACUUGCAUAGAAGGAACUAUUUCAUGACAUUAGAGGCAGUAGUUC [FMN A SS t7] | 152 |
| UGAUUUAACUGAAGGAGCGGCAAUUGAUAAGGAAAUAUAGUGAUGUUAUAUAAGAGAGAGAGCCAGGUAGGUCGCAGAGGGAGGA [ExArgB.H] | 154 |
| UUGGCUGGACGGGAUACCAGCCAAAUCGUGUGCUUGGGAUGUCUAAGAGCCAGUGAUGUUGGCCCUUGGCAGCCCUCCCAGCUUG [Inontixe] | 134 |
| CGCAGUGAUGUUGCGAGUAACUACAGGGAAGGAGCGCGGUAGUCCGCAGGUAGGUCGCCCACGCAGUGAUGUUGCGUCAUAGGGU [Exclusion Arg A GF7] | 118 |
| CCUGCGGCUUCCGGCGGGCCCGAUUUAUAAAAGGAUAUGUGCGUACACAGAAGGUUUAACGAGGGACCGAGAGUGAUGUUCUCCU [theeternabot_sameState_KL_FMN_A_33] | 370 |
| UGUCAUUGGUCUGAUACCAGCUUGAUCGGAAAACGAUCUGCUGGAGUGAUGUUCCAAUAAAGCCCUUGGCAGCAGACCGAUGACU [TheoBS 7 #SwitchBubble #StaticStem] | 961 |
| GCAAACCUCAGUGAUGUUGAGUAAUCGGAAGGAGCGCGUGAAAACGCAGGUAGGUCGCCGAUACAUGAAGUAUCUUCGUGUUUGC [Arginine A K4 23] | 380 |

same assay, conditions: Eterna round: R107; input ligand: tryptophan 2.4 mM

| Sequence | apparent KD of K4 kissing-loop reporter [nM] |
| --- | --- |
| GCAGUGAUGUUGCGAAUCGGCCAUGAUACAGAGGAUAUCGUGCCUUCGAGAAGGUUGUAUAGAGGAUACGAUAUUAUAAAUGACG [Same State FMN A GF 1] | 348 |
| AAGGUCACUACUACAGUGAUGUUGUGGGAGCAGGAUAUGCAGAAAUGCAGAAGGGCUCGCUCCAGGUGACCGAAUGAAACAUUCA [whbob_SS_FMNA__2th174] | 1140 |
| AAUAAUAAUAAAUAAAGAUUGAUGAGCAAACGAGGACCGGUACGGCCGCCACUCGAGUGAUGUUCGAGAAGCUCAUCAAUCAUAA [AK4.8 Exc Tryptophan A] | 337 |
| AACGCUUGAAUAACAAGCGAAAUAAAUUCGCGAGGACCGGUACGGCCGCCACUCGCUAACUGCGAGUGAUGUUCGAUAAUAAAAU [Mat - Mod of OpenEnded 3 - D15] | 71 |
| GAUUUAGAGGCGGCCGCCACUAGUGAUGUUAGUGAUGUUUGAUACUGAAUAUAUCUGCGAGUAGAUAGGACCGGGCCAGAUGGAG [plmfmullin] | 182 |
| AGUAGAGCAUCAGAUACCAGACAGAACUGAUGGUAAGGAGUGAUGUUCCUUAAUCAGCUUGUCCCUUGGCAGCUGAUAAUAGUCA [#13 K4 Theophylline B Same State] | 438 |
| GCUAUGGUAGGAAGGAGCGCUUAUUUAUUUUUACGAGUGAUGUUCGGUAGUAGAUAGUUAAAGCAGGUAGGUCGCCUACUAUAGC [Arginine B K4 16] | 123 |
| UCCUGCAAUCUGCCACGAAAGUGGGUUGAUACCAGAGUCGAAAGACUCCCUUGGCAGCGAGUGAUGUUCGUUGCAGGUAAAUAAA [MatMod 8 - Jieux - Exclusion - Theophylline A] | 168 |
| UGGAUUAGGACGGCCGCCACUACGCUGGCAUGAGUGAUGUUCUAAGGCUUGUCAAAGAUCCAGAGUAGGACCGGGUCCAAUGACU [theeternabot_exclusion_KL_Trp_B_38] | 271 |
| GUUACGCAUGGAAGGAGCGCACUCCGAUUGGGCGACGCAGUGAUGUUGUGGUUCGUUCGAAUGCAGGUAGGUCGCCAUGUGUAAC [Ex Arginine B K4 21] | 192 |
| ACGUGCCCAGUGAUGUUGGAUAAAUAUGAAGGAGCGUGCGAAAGCACAGGUAGGUCGCAUAAUAGCACGAGCCACGAAAGUGGCA [#SwitchBubble 7 #K4Early #Sliding] | 134 |
| AUUUUGGUUUAGAGUGAUGUUCCUUGUGUUCGAGGACCGGUACGGCCGCCACUCGGGUAGAAAAGAAAAGAAAUGUUUGAUUUUU [BDazzled - #10 SS Tryptophan A] | 123 |
| UUUAUGAGGUCGGCCGCCACUGGAUUUAUGUUUGUUUCGUCUGGAUCAAAGUGAUGUUUUGAGUCCAGGACCGGGACAUUUGUUA [whbob_Ex_Tryp_B_w40] | 94 |
| AAUAAUCUAGGUGAUACCAGCUCAACAUGAGUGAUGUUCAUGAAAUAAUGUAGAGUUGAGAGCCCUUGGCAGCACCUAGAUAAUA [KL-SSTheoB5] | 240 |
| AUCGUUGUCUGAGGAUAUCGUUUUACUGUAGUGAUGUUACAGAAAAUUCACAUUAUAAUUUCUAUUCGAGAAGGCAGACUACGUA [JR_ExcFMNB_Sub015] | 120 |
| GUAUCGCUAGGAGGAUAUUUCAAUUUGACUCUUUGAGUUUUUACGGAGUGAUGUUCCGUUUUACGGAAAGAAGGCCUAGUGAUAC [FMN B 15] | 161 |
| UGAUAGGACAGAAGGAGCGGGAGUGAUGUUCCCAAAAGUAUAAGGUGUCAAAAGACACCCUCCCAGGUAGGUCGCUGUCCUAUCU | 367 |
| CGUUCCUCUGUCGAUACCAGCUUCAGUUGGCGGCCAGUGAUGUUGGUAUUGCCGAUGCCAAGCCCUUGGCAGCGAUAUGAGACCC [Aredi] | 439 |
| GGUAGCAUGGCGGCCGCCACUAUCAGGAGUGAUGUUCCAACGCAGAGCUUCAGCUAGUGUGUAAAUAGGACCGGGCCAUGCUACC | 866 |
| AAUUAAGUGACGGCCGCCACUAGGGUGAUUUUUUUGUUUGAGUGAUGUUUUGAUGUUUGAUUUUGUAGGACCGGGUUAGGUGAUG [juhmullin] | 252 |
| AGUGAUGUGGGAAGGAGCGCUACAUCACUUCAGUGAUGUUGAAGUGAUGAAUUAGUGAUGUAGCAGGUAGGUCGCCUAGAUGUUA [KL-XARG-B12] | 51.3 |
| AUUAUAAAGUCGGCCGCCACUGAGAGUAGUGAUGUUACUCUUUUCCUUUAGAUAUUAUAUUUUAUCAGGACCGGGACAUCAGAUU [JR_ExcTryptoB_Sub020] | 162 |

| Sequence | apparent KD of K4 kissing-loop reporter [nM] |
| --- | --- |
| GAUACGAAGCAGUGAUGUUGCUUAUGAGAAGGAGCGCACGAAAGUGCAGGUAGGUCGCUCAGCCAUGUGGACGAAAACGUCCACA [whbob_SS_Arginine_A_sa111] | 78.1 |
| UCCUAGGCUCGAAAGAGCCUAGGAUUAUCUCAGGAUAUCCGGAAACGGAGAAGGGAGAAACUAGUGAUGUUAGGGAUUCCCUCUU | 126 |
| AUUCUGUUUUUGAUGUUUAUUGUAUAAUGGCAGGAUAUCGUAGAAGCGAGAAGGGCUUUUAUGCGUUAUGAGUGAUGUUUGUAGG [eyeefvmullin] | 256 |
| UGAUAGGACAGAAGGAGCGGUAGUGAUGUUACCAAAAGGGUAAGGUGUCAAAAGACACCCUGCCAGGUAGGUCGCUGUCCUAUCU | 87 |
| UUUAUUAAGACGGCCGCCACUGAUUCAUAGUGAUGUUAUGAUAUAAUCUUAGUGAUAUUUAUAAACAGGACCGGGUCAAUUAUUA [JR_SSTryptoB_Sub026] | 162 |
| UGACUGGACUGAAGGAGCGCUAAAACUCCUAGUGAUGUUGGGAAAACGAGACAAAGUCUCGAGCAGGUAGGUCGCAGUCUAGUCU [ArgBS 22 #SwitchBubble #StaticStem] | 258 |
| GAUUUAGAGGCGGCCGCCACUAGUGAUGUUAGUGAUGUUUGAUAGGGAAUAUAUCAGCGAGUAGAUAGGACCGGGCCAGAUGGAG [gtggbmullin] | 167 |
| CCAAUCAGUUACGAUACCAGUCUAAUAUAUUUGAUCAAAACCCUCGCCGAGUGAUGUUCGGACCCUUGGCAGCGUCUGGGACAGG [fcctmullin] | 394 |
| UUUUAAAUGUCUGAUACCAGAGAAAAUAUAUGUAGUGAUGUUACAUACAAAUUUAAUAAGCUCCCUUGGCAGCAGUAUGAAUUUU [AstrosExc-TheB#15] | 49.5 |
| AAAAUAAAAGCAGUCAUCGGAGUGAUGUUCCGAGGACCGGUACGGCCGCCACUCGACCAGACAAAGUCUGGAUGGCGAGACUGCA [#SwitchBubble 18 #K4Early] | 85.6 |
| CUUGGUCUACGAAGGAGCGCCGUGCAGUGAUGUUGCAGUCAGAUCGAGUGAUGUUUCGGGCGGCAGGUAGGUCGCGUGGCCCUUU [Excusion Arginine B GF 26] | 579 |
| ACAGUACCGGGAAGGAGCGUGAAUGAGAAUGGAUAUAGUGAUGUUAUGUAUACGAACGAAUCGCAGGUAGGUCGCCCGGAUCCCU [SSArgB.aD] | 529 |
| UGACUUGCCUGAGGAUAUCUAGGAUAUGGAUAAAAUAAAAUAAUAAUGGAGUGAUGUUCCAGAAGGAGAGAAGGCAGGUAAGUCU [KL-XFMN-B16 #DoubleAptamer #SwitchBubble] | 84 |
| CAUAAAAGGUGGAAGACGAAUCGGUGUCGCCGAGGACCGGUACGGCCGCCACUCGGUCAUCAAAUCCUUCCCGAGUGAUGUUCGA [theeternabot_sameState_KL_Trp_A_5] | 258 |
| AGCGAGUGAUGUUCGCUGAUCAUGAGAAGUUAGGAUAUAUACUUGCAUAGAAGGAACUAUUUCAUGACAUUAGAGGCAGUAGUUC [FMN A SS t7] | 125 |
| UGAUUUAACUGAAGGAGCGGCAAUUGAUAAGGAAAUAUAGUGAUGUUAUAUAAGAGAGAGAGCCAGGUAGGUCGCAGAGGGAGGA [ExArgB.H] | 145 |
| UUGGCUGGACGGGAUACCAGCCAAAUCGUGUGCUUGGGAUGUCUAAGAGCCAGUGAUGUUGGCCCUUGGCAGCCCUCCCAGCUUG [Inontixe] | 98.4 |
| CGCAGUGAUGUUGCGAGUAACUACAGGGAAGGAGCGCGGUAGUCCGCAGGUAGGUCGCCCACGCAGUGAUGUUGCGUCAUAGGGU [Exclusion Arg A GF7] | 97.3 |
| CCUGCGGCUUCCGGCGGGCCCGAUUUAUAAAAGGAUAUGUGCGUACACAGAAGGUUUAACGAGGGACCGAGAGUGAUGUUCUCCU [theeternabot_sameState_KL_FMN_A_33] | 418 |
| UGUCAUUGGUCUGAUACCAGCUUGAUCGGAAAACGAUCUGCUGGAGUGAUGUUCCAAUAAAGCCCUUGGCAGCAGACCGAUGACU [TheoBS 7 #SwitchBubble #StaticStem] | 763 |
| GCAAACCUCAGUGAUGUUGAGUAAUCGGAAGGAGCGCGUGAAAACGCAGGUAGGUCGCCGAUACAUGAAGUAUCUUCGUGUUUGC [Arginine A K4 23] | 274 |
